Test results: patent US20240050600A1, “Radiopharmaceuticals, uses thereof, and methods for the production thereof” (priority 2020, published 2024)

Assay: in vivo
Design: species or system Balb/c nude mice
Settings: male, Balb/c nude, mouse, iv, total radioactivity
From the text: Healthy male Balb/c nude mice (˜18 g) from 8 weeks old were obtained from the ARC and used for this study. Mice were imported into the CAI animal holding facility and monitored for 1 week prior to the study in order to acclimatise to the environment prior to injection of cells. All animals were provided with free access to food and water before and during the imaging experiments which were approved by the University of Queensland Animal Ethics Committee (Approval #AIBN/CAI/105/19/ARC/NHMRC).
8-week-old male Balb/c nude mice were injected (27 G needle) subcutaneously with PC3 ([…]) cells in 50 μL of 50:50 matrigel and cells in phosphate buffered saline into the right flank of each mouse. There was no evidence of ulceration at the time of dosing; the animals were closely monitored and remained in good condition apart from the growth of tumours. […] Labelled peptides were injected via the tail vein (29 G needle; ˜2-3 MBq) and then mice were imaged using the Siemens Inveon PET-CT instrument at the various timepoints.
The injection syringe was filled with the radioisotope solution (approximately 150 μL) and the activity in the syringe was measured using a dose calibrator (Capintec CRC-25) with a calibration factor of 35. The activity left in the syringe after the tail vein injection was measured using the same dose calibrator and the total volume injected in each mouse was calculated.
Organs were excised at 24 hours, with the percentage of injected dose of the administered compound determined by ex vivo gamma counting (Table 2). Values are averages across 4 mice.

[1] = Percentage of injected dose in Blood
[2] = Percentage of injected dose in GI Tract
[3] = Percentage of injected dose in Heart
[4] = Percentage of injected dose in Kidneys
[5] = Percentage of injected dose in Liver
[6] = Percentage of injected dose in Lungs
[7] = Percentage of injected dose in Pancreas
[8] = Percentage of injected dose in Spleen
[9] = Percentage of injected dose in Tail
[10] = Percentage of injected dose in Tumour

Compound	tissue uptake at 24 h [1] [%ID/g]	tissue uptake at 24 h [2] [%ID/g]	tissue uptake at 24 h [3] [%ID/g]	tissue uptake at 24 h [4] [%ID/g]	tissue uptake at 24 h [5] [%ID/g]	tissue uptake at 24 h [6] [%ID/g]	tissue uptake at 24 h [7] [%ID/g]	tissue uptake at 24 h [8] [%ID/g]	tissue uptake at 24 h [9] [%ID/g]	tissue uptake at 24 h [10] [%ID/g]
CC(C)CC(NC(=O)CC(O)C(CC(C)C)NC(=O)C(Cc1c[nH]cn1)NC(=O)CNC(=O)C(NC(=O)C(C)NC(=O)C(Cc1c[nH]c2ccccc12)NC(=O)C(CCC(N)=O)NC(=O)C(Cc1ccccc1)NC(=O)CCOCCOCCOCCOCCNC(=O)CCCC(=O)NC12CNCCNCC(NC(=O)CCCC(=O)NCCOCCOCCOCCOCCC(=O)NC(Cc3ccccc3)C(=O)NC(CCC(N)=O)C(=O)NC(Cc3c[nH]c4ccccc34)C(=O)NC(C)C(=O)NC(C(=O)NCC(=O)NC(Cc3c[nH]cn3)C(=O)NC(CC(C)C)C(O)CC(=O)NC(CC(C)C)C(N)=O)C(C)C)(CNCCNC1)CNCCNC2)C(C)C)C(N)=O (stereo not drawn) [Sar(BBN)2]	0.1 ± 0.05	0.44 ± 0.04	0.21 ± 0.03	6.81 ± 0.67	16.8 ± 1.55	0.36 ± 0.12	0.84 ± 0.06	1.47 ± 0.2	0.28 ± 0.05	2.13 ± 0.86
CC(C)C[C@H](NC(=O)C[C@H](O)[C@H](CC(C)C)NC(=O)[C@H](Cc1c[nH]cn1)NC(=O)CNC(=O)[C@@H](NC(=O)[C@H](C)NC(=O)[C@H](Cc1c[nH]c2ccccc12)NC(=O)[C@H](CCC(N)=O)NC(=O)[C@@H](Cc1ccccc1)NC(=O)CCOCCOCCOCCOCCNC(=O)CCCC(=O)NC12CNCCNCC(N)(CNCCNC1)CNCCNC2)C(C)C)C(N)=O [Sar(BBN)]	0.13 ± 0.04	0.3 ± 0.07	0.24 ± 0.02	3.55 ± 0.79	1.52 ± 0.18	0.31 ± 0.08	0.23 ± 0.02	0.38 ± 0.06	0.56 ± 0.87	4.09 ± 0.52
CC(C)C[C@H](NC(=O)C[C@H](O)[C@H](CC(C)C)NC(=O)[C@H](Cc1c[nH]cn1)NC(=O)CNC(=O)[C@@H](NC(=O)[C@H](C)NC(=O)[C@H](Cc1c[nH]c2ccccc12)NC(=O)[C@H](CCC(N)=O)NC(=O)[C@@H](Cc1ccccc1)NC(=O)CCOCCOCCOCCOCCNC(=O)CCCC(=O)NC12CNCCNCC(NC(=O)CCCC(=O)NC(CCCCNC(=O)CCCc3ccc(I)cc3)C(=O)O)(CNCCNC1)CNCCNC2)C(C)C)C(N)=O (stereo partly drawn) [Sar(ABG)(BBN)]	7.22 ± 0.79	1.93 ± 0.46	3.1 ± 0.53	4.29 ± 0.54	2.96 ± 0.3	4.85 ± 0.93	6 ± 1.17	2.68 ± 0.33	2.06 ± 0.3	22.3 ± 11
